# Measured values taken from patent US20260234247A1.
# Substitutions are numbered along the chain they refer to.
# B1: 15G8 (antibody, human IgG4 S228P, kappa, V domains shown)
# VH: DVQLQGSGPGLVKPSETLSLTCSVTGYSITSGYYWNWIRQFPGKKLEWMGYISYDGSNNYNPSLKNRITISRDTSKNQFSLKLNSVTAADTATYYCAHGYSYYYAMDAWGQGTSVTVSS
# VL: DIQMTQSPSSLSASVGDRVTITCRTSQDISNYLNWYQQKPGKAVKLLISYTSRLHSGVPSRFSGSGSGTDYTLTISSLQPEDFATYYCQQGNTLPTFGQGTKLEIKR
# B2: LK-RB1-50 (antibody, human IgG4 S228P, kappa, V domains shown)
# VH: QVQLKQSGPGLVQPSQSLSITCTVSGFSLTSYGVHWVRQSPGKGLEWLGVIWRGGNTDYNAPFVSRLSITKDNSQSQVFFKMNSLEADDTAIYYCAKNSLDVYSSWYFDVWGTGTTVTVSS
# VL: QIVLSQSPAILSAFPGEKVTMTCRASSSVSFMHWYQQKPGSSPKPWIYATSNLASGVPARFSGSGSGTSYSLTISRVEAEDAATYYCQQWSSNPLTFGAGTKLELKR
# B3: LK-RB1-56 (antibody, human IgG4 S228P, kappa, V domains shown)
# VH: QVQLKQSGPGLVQPSQSLSITCSVSGFSLTNYGVHWVRQSPGKGLEWLGVIWRGGSTDNNAAFMSRLSITKDNSKSQVFFKMNSLQADDTAIYYCAKNSDFYGSSWYFDVWGTGTTVTVSS
# VL: B2 VL with F14S, S92R, L95P
# B4: LK-RB1-58 (antibody, human IgG4 S228P, kappa, V domains shown)
# VH: B3 VH with S23T, N31T, N59Y, K81R, I92R, D100L, F101Y
# VL: B2 VL with F14S, L95P, A99G, L105I
# B5: LK-RB1-39 (antibody, human IgG4 S228P, kappa, V domains shown)
# VH: EVQLQQSGAELVRPGASVKLSCTASGFNIKDDYVHWVNQRPEQGLEWIGWIDPENGDTGYASKFQDKATITADTSSNTAYLHLSSLTSEDTAVYYCTTTRWTGSYWGQGTTLTVSS
# VL: QIVLTQSPAIMSASPGEKVTITCSASSSVNYMHWFQQKPGSSPKLWIYSTANLASGVPARFSGSGSGTSYSLTISRMEAEDAATYYCQQRSSYPPTWTFGGGTKLEIKR
# B6: LK-RB1-51 (antibody, human IgG4 S228P, kappa, V domains shown)
# VH: QVQIQQSGAELVKPGASVKLSCKASGYTFTEFPIHWIKQRSGQGLEWIGWFYPGSDNMNYNEKFKDKATLTADKSSSTVYMELSRLTSEDSAVYFCARHENAYFYAMDYWGQGTSVTVSS
# VL: ENVLTQSPAIMSASLGEKVTMSCRASSSVNYMYWYQQKSDASPKIWIYYTSNLAPGVPARFSGSGSGNSYSLTISSMEGEDAATYYCQQFTSSPFTFGTGTKLEIKR
# B7: LK-RB1-54 (antibody, human IgG4 S228P, kappa, V domains shown)
# VH: DVQLQESGPGLVKPSQSLSLTCSVTGYSITSGFYWNWIRQFPGNKLEWMGHISYDGTNNYNPSLKNRISITRDTSKNLFFLKLNSVTTEDTATFHCARGGYGGSYGFDYWGQGTTLTVSS
# VL: B6 VL with I45L, A59V, F95W, T99G
# B8: LK-RB2-27 (antibody, human IgG4 S228P, kappa, V domains shown)
# VH: DVKLVESGGGLVKPGGSLKLSCAASGFTFSSYSMSWVRQTPEKRLEWVATISTGGSYTYYPDSVKGRFTISRDNAKNTLYLQMSSLKSEDTAMFYCTRGSMDYWGQGTSVTVSS
# VL: DILMTQSPSSMSVSLGDTVSITCHASQDISSNIGWLQQKPGNSFKGLIYHGTNLEDGVPSRFSGSGSGADYSLTISSLESEDFADYYCVQYAQFPYTFGGGTKLEIKR
# B9: LK-RB2-28 (antibody, human IgG4 S228P, kappa, V domains shown)
# VH: B8 VH with V64M
# VL: B8 VL with T22A
# B10: LK-RB2-25 (antibody, human IgG4 S228P, kappa, V domains shown)
# VH: QVQLKESGPGLVAPSQSLSITCTVSGFSLTSYGVHWVRQPPGKGLEWLGVIWAGGSTKYNSALMSRLSINKDNSKSQVFLKMNSLQTDDTAMYYCARDQMVRSAMDYWGQGTSVTVSS
# VL: DIQMIQSPSSMFASLGDRVSLSCRASQGIRGNLDWYQQKPGGTIKLLIYSTSNLNSAVPSRFSGSGSGSDYSLTISNLESEDFADYYCLQRNASPYTFGGGTKLEIKR
# B11: LK-RB2-26 (antibody, human IgG4 S228P, kappa, V domains shown)
# VH: B10 VH with K58D, S61A, L63F, M64I, S68N, N70S, N73I, K75E, L80F, K81R
# VL: B10 VL
# B12: LK-RB2-8 (antibody, human IgG4 S228P, kappa, V domains shown)
# VH: QIQLVQSGPELKKPGETVKISCKASGYSFASYGMGWVKQAPGKGLKWLGWINTHSGVPTYADDFKGRFAFSLETSASTAYLQINNLKNEDTATYFCAHYGRPWFPYWGQGTLVTVSA
# VL: DIQMTQSPASLSASVGETVTITCRTSENIYSYLAWYQQKQGKSPQLLVYNAKSLAEGVPSRFSGSGSGTQFSLRINSLQPEDFGTYYCQQHYETPLTFGAGTKLELKR
# B13: LK-RB2-16 (antibody, human IgG4 S228P, kappa, V domains shown)
# VH: B12 VH with S28T, A30T, S31T, G42E, L48M, H54N, V57A, A61G, P105A
# VL: B12 VL with T25A, Q37H, K42E, S53T, R74K, T85S, Q90H, E93N, T94I
# B14: LK-RB1-43 (antibody, human IgG4 S228P, kappa, V domains shown)
# VH: EFQLQQSGPELMKPGASVKISCKASGYSFTDYNMNWVKQSNGKSLEWIGIIDPNYGTTTYNQKFKGRATLTVDQSSNTAYMQLNSLTSEDSAVYYCAREGRYSWFAYWGQGTLVTVSA
# VL: DIQMTQSPGALSVSVGETVTITCRASENINSNLAWYQQKQGKSPQLLVYAATNLADGVPSRFSGSGSGTQYSLKINSLQSEDFGSYHCQHFWGTPFTFGSGTKLEIKR
# B15: LK-RB1-59 (antibody, human IgG4 S228P, kappa, V domains shown)
# VH: QIQLVQSGPELKKPGETVKISCKASGYTFTTYGMSWVKQAPGKGLKWMGWINTYSGVPTYADDFKGRFAFSLETSASTAYLQINNLKNEDTATYFCARRRIYYGNKGYAMDYWGQGTSVTVSS
# VL: B14 VL with G9A, A10S, N30Y, A34V, A50T, Y71F, H87Y, F96W, S100G
# B16: LK-RB1-42 (antibody, human IgG4 S228P, kappa, V domains shown)
# VH: QVQLQQPGAELVKPGTSVKLSCKASGYSFISYWVYWVKQRPGQGLEWIGMIHPNSGSTNFNEKFRYKATLTVDKSSSTAYIQLSSLTSEDSAVYYCGRSDDGYPYHAMDSWGQGTSVTVSS
# VL: DIVMTQSQKFMSTSVGDRVSVTCKASQNVGTNVAWYQQKPGQSPKALIYSASYRFSGVPDRFTGSGSGTDFTLTIGNVQSEDLAEYFCHQYKNYPLTFGGGTKLEIKR
# B17: LK-RB1-35 (antibody, human IgG4 S228P, kappa, V domains shown)
# VH: DVQLQESGPGLEKPSQSLSLTCSVTGYSITRGYQWNWIRQFPGNKLEWMGYISYDGSNNYNPSLKNRISITRDASKNQFFLKLNSVTTEDTATYYCARRSYNSIDYWGQGTTLTVSS
# VL: DIVLTQSPATLSVTPGDSVSLSCRASQSISSNLHWYQQKSHESPRLLIKYASQSISGIPSRFSGSGSGTDFTLSINSVETEDFGMYFCQQSNSWPLTFGAGTKLELKR
# B18: LK-RB1-36 (antibody, human IgG4 S228P, kappa, V domains shown)
# VH: B17 VH with T71I, A74T
# VL: B17 VL with S31N
# B19: LK-RB1-38 (antibody, human IgG4 S228P, kappa, V domains shown)
# VH: DVQLQESGPGLVQPSQSLSLTCSVTGYSITSGYQWNWIRQLPGNKLEWMAYISFDGSNNYNPSLKNRISITRDTSKNQFFLKLKSVTTEDTATYYCARRDYDGVAYWGQGTLVTVSA
# VL: B17 VL with D1E, S18R, S28N, S31N, N32Y, E42G, L47I
# B20: LK-RB1-44 (antibody, human IgG4 S228P, kappa, V domains shown)
# VH: QVQLQQSGTELAKPGASVKLSCKASGYTFTNYWMHWIKQRPGQGLEWIGYVHPTSDYTKYNQKFKDKATLTADKSSSTAYMQLNSLTYEDSAVYYCTRSSLYDTNYVFDSWGQGTTLTVSS
# VL: DILLTQSPAILSVSPGERVSFSCRASQSIGRSIHWFQQRTNGSPSLLIKYASESISGIPSRFSGGGSGTDFTLSISNVESEDIADYYCQQSNNWPFTFGSGTKLEIKR
# B21: LK-RB1-34 (antibody, human IgG4 S228P, kappa, V domains shown)
# VH: QVQLQQSGAELVKPGASVKLSCKASGYTFTEYTIHWVKQRSGQGLEWIGWFYPGSDSIKYNEKFKDKATLTADKSSSTVYMELSRLTSEDSAVYFCSRHEGPYFTSQYYFDYWGQGTTLTVSS
# VL: DILLTQSPAILSVSPGERVSFSCRASRYIGTSIHWYQQRTNGSPRLLIKYASESISGIPSRFSGSGSGTDFTLSINSVESEDIADYYCQQSNTWPLTFGAGTKLELKR
# B22: LK-RB1-45 (antibody, human IgG4 S228P, kappa, V domains shown)
# VH: B20 VH with K13R, Y32F, H52N
# VL: B20 VL with F36Y, S45R
# B23: LK-RB1-37 (antibody, human IgG4 S228P, kappa, V domains shown)
# VH: QVQLQQPGAELVKPGASVKLSCKASGYTFTSYWMHWVKQRPGRGPEWIGRIDPNSGYARYNEKFKNKATLTADKPSSTADMHLSSLTSEDSAVYYCTRSFITTAEWFFDVWGTGTTVTVSS
# VL: B21 VL with R27Q, Y28S, T40R, A51T, T93S, L96H, A100G
# B24: LK-RB1-46 (antibody, human IgG4 S228P, kappa, V domains shown)
# VH: EVQLQQSGPELVKPGASVKISCKTSGYTFTDYYMNWVKQSHGKSLEWIGDIYPINGDISYNQKFKGKATLTVDKSSSTVYMEIRSLTYEDSAVYYCARLAQTTSGGFDYWGQGTTLTVSS
# VL: DIVLTQSPTSLAVSLGQRAIISCKASQSVSFAGTSLMHWYQQKPGQQPKLLIYRASNLKAGVPTRFSGSGSRTDFTLNIHPVEEDDAATYYCQQSREYPMYTFGGGTKLEIKR
# Target: Rhesus LILRB1 (NP_001035762.2) on CHOK1 cells (rhesus macaque) (UniProt F7H3G7)
# Experiment: cell based blocking assay on CHOK1-rhesus LILRB1 (NP_001035762.2) cells; blocked ligand not named
EC50,Top Inhibition (%),Binder
4.56 nM,88.1%,B1
5.68 nM,57.8%,B2
2.42 nM,15.9%,B3
1.42 nM,45.4%,B4
0.16 nM,73.1%,B5
0.87 nM,64.9%,B6
1.2 nM,54%,B7

# Target: Cynomolgus LILRB2 on CHOK1 cells (cynomolgus)
# Experiment: flow cytometry on CHOK1-cyno LILRB2 cells
row,EC50,Binder
1,2.14 nM,B8
2,2.03 nM,B9
3,1.48 nM,B10
4,2.11 nM,B11

# Target: Rhesus LILRB1 (NP_001035762.2) on CHOK1 cells (rhesus macaque) (UniProt F7H3G7)
# Experiment: flow cytometry on CHOK1-rhesus LILRB1 (NP_001035762.2) cells
row,EC50,Binder
1,24.1 nM,B1
2,15.1 nM,B12
3,18.5 nM,B13
4,1.62 nM,B14
5,40.2 nM,B15
6,11.2 nM,B2
7,29.2 nM,B3
8,158 nM,B4
9,59.8 nM,B16
10,0.64 nM,B17
11,0.54 nM,B18
12,4.97 nM,B19
13,0.36 nM,B5
14,21.4 nM,B6
15,769 nM,B20
16,8.06 nM,B21
17,96.1 nM,B22
18,37.7 nM,B23
19,2.71 nM,B24
